The target of one assay is T1, human MuSK (human, UniProt O15146 24-495).
T1 construct: Recombinant protein coated on ELISA plates (R&D Systems cat. 10189-MK) or on the Biacore chip; also called human muscle-specific tyrosine protein kinase; full length human MuSK
T1 sequence: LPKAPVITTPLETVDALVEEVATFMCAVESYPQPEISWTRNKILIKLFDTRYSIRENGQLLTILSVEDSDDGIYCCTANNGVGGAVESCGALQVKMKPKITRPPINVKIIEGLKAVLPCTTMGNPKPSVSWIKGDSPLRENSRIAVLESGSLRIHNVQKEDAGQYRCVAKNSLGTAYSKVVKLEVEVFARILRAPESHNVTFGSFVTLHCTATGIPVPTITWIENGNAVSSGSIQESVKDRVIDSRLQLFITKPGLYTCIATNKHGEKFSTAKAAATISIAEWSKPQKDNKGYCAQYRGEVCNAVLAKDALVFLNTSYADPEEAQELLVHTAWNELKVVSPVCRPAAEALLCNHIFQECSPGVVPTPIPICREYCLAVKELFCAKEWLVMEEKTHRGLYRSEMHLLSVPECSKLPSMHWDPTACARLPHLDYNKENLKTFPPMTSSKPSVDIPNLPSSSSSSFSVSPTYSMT
As to the kind of experiment: Biacore, MuSK on chip (200RU), mAb dilution series. The text has this:
For affinity determination, a CMS chip was coated with either human or mouse MuSK (200RU) and a dilution series of the antibodies (mAbs and Fabs) was applied in order to be able to calculate the affinity.
In general terms: Surface plasmon resonance follows binding to a sensor surface in real time, without labels.

The target of another assay is T2, rat MuSK (rat, UniProt Q62838 22-494, limits assumed).
T2 construct: Coated on Biacore chip (200RU) or ELISA plate
T2 sequence (looked up): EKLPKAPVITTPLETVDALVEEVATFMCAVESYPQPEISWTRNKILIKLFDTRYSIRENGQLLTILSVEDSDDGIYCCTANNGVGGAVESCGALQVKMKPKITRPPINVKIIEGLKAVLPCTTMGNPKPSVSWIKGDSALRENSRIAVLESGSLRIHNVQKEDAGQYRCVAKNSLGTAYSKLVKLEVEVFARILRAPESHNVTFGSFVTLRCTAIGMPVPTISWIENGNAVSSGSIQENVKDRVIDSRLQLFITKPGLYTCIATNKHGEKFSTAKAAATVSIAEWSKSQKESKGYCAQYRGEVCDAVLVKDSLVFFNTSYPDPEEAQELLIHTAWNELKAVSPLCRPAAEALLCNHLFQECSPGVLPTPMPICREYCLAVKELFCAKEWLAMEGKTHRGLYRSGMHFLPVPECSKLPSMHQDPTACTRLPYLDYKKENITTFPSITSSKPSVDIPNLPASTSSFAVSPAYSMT
The experiment in a line: Biacore, MuSK on chip, association pH 7.4, dissociation pH 5.5. Put shortly:
(§1)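 MuSK was immobilized on the sensor chip at 200 RU, and antibody was injected at 66.7 nM. Association ran at pH 7.4 and dissociation at pH 5.5, and kinetic parameters were calculated from the sensorgrams.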

A further assay deals with cynomolgus monkey MuSK (cynomolgus monkey, UniProt A0A2K5USF6 24-487). The assay is described as above. Put shortly: as §1
cynomolgus monkey MuSK, sequence (A0A2K5USF6 entry or part of it): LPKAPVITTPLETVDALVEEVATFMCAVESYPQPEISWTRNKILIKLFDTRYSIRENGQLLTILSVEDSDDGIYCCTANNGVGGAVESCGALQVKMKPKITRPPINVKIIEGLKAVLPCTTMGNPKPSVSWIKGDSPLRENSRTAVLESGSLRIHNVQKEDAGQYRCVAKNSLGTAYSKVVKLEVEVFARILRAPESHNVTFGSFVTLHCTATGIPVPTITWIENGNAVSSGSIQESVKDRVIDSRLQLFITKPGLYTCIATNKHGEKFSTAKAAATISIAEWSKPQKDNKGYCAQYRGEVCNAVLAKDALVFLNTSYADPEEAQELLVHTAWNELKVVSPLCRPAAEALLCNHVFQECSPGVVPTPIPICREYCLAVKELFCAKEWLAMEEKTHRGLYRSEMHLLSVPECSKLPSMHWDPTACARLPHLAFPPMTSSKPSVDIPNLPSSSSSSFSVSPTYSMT
The target in a further assay is T3, mouse MuSK (mouse, UniProt Q61006 22-494, limits assumed).
T3 construct: Coated on ELISA plates or on the Biacore chip; also called full length mouse MuSK; mouse MuSK (in house produced in HEK293 cells)
T3 sequence (looked up): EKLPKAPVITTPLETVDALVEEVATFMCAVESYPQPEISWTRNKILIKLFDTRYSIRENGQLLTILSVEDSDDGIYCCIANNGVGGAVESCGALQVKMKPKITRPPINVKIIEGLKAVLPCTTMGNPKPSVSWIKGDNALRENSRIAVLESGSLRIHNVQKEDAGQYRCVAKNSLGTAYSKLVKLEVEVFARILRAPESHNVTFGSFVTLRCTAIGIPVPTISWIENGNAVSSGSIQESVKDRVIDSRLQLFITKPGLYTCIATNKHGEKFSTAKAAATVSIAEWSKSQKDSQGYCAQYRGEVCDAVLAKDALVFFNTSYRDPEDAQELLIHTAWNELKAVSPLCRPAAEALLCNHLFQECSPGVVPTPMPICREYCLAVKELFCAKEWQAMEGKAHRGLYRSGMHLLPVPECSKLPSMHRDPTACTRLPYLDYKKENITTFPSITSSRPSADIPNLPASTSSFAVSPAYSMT
The description is as above. Put shortly: as §1

B1: 3B2 (antibody, V domains shown)
VH: ELQLVESGGGLVQPGGSLRLSCAASGFTFDDYGMSWVRQAPGKGLEWVSAIPWNGGSTYYKESVKGRFTISRDNAKKTLYLQMNSLKSEDTAVYYCAKRSGRIAFGALDAWGQGTLVTVSS
VL: QAVVTQEPSLSVSPGGTVTLTCGLSSGSVTSSNYPDWYQQTPGQAPRGLIYSTDSRHSGVPSRFSGSISGNKAALTITGAQSEDEADYYCGLYMYSGSKNYVFGGGTKLTVL
notes: human IgG1 with the LALA mutations (L234A, L235A); produced in HEK293 cells; also called 3B2 mAb; parental 3B2 Ab
What is called Kd is a measure of binding affinity in units of concentration. What is called koff is the first-order rate constant of dissociation. One may read the kon as a measure of how fast the partners come together. B1: in the assay with human MuSK, the Kd was found to be 0.145 nM. Also, the R0 in the assay with rat MuSK amounted to 174 RU; in the assay with cynomolgus monkey MuSK, 149 RU; with mouse MuSK it was 194 RU. Besides, the koff in the assay with rat MuSK turned out to be 0.0062 s⁻¹; in the assay with cynomolgus monkey MuSK, 0.00317 s⁻¹; with mouse MuSK, 0.00296 s⁻¹. For the same molecule, the values for the kon with rat MuSK, with cynomolgus monkey MuSK and in the assay with mouse MuSK were 980000 M⁻¹ s⁻¹, 740000 M⁻¹ s⁻¹ and 1.05e+06 M⁻¹ s⁻¹, respectively.

Source of the values: patent publication US20230151091A1 (NEW YORK UNIVERSITY, published 2023).
